Columns and labels:
Assay in all cases: cell-based or functional assay
[1] = target: Env of HIV-1 pseudovirus 6244_13_B5_4576 (HIV-1)
[2] = target: Env of HIV-1 pseudovirus 7030102001E5(Rev-) (HIV-1)
[3] = target: Env of HIV-1 pseudovirus SC05_8C11_2344 (HIV-1)
[4] = target: Env of HIV-1 pseudovirus Du422.1 (HIV-1)
[5] = target: Env of HIV-1 pseudovirus SC422661.8 (HIV-1)
[6] = target: Env of HIV-1 pseudovirus Q23.17 (HIV-1)
[7] = target: Env of HIV-1 pseudovirus WEAU_d15_410_787 (HIV-1)
[8] = target: Env of HIV-1 pseudovirus PVO.4 (HIV-1)
[9] = target: Env of HIV-1 pseudovirus WITO4160.33 (HIV-1)
[10] = target: Env of HIV-1 pseudovirus CAAN5342.A2 (HIV-1)
[11] = target: Env of HIV-1 pseudovirus 1054_07_TC4_1499 (HIV-1)
[12] = target: Env of HIV-1 pseudovirus ZM247v1(Rev-) (HIV-1)
[13] = target: Env of HIV-1 pseudovirus 191955_A11 (HIV-1)
[14] = target: HIV-1 Env of pseudovirus REJO4541.67 (HIV-1)
[15] = target: HIV-1 Env of pseudovirus CNE30 (HIV-1)
[16] = target: HIV-1 Env of pseudovirus 1394C9G1(Rev-) (HIV-1)
[17] = target: HIV-1 Env of pseudovirus HIV-16845-2.22 (HIV-1)
[18] = target: HIV-1 Env of pseudovirus WITO4160.33 (HIV-1)
[19] = target: HIV-1 Env of pseudovirus 1056_10_TA11_1826 (HIV-1)
[20] = target: HIV-1 Env of pseudovirus HIV-0013095-2.11 (HIV-1)
[21] = target: HIV-1 Env pseudovirus 1056_10_TA11_1826 (HIV-1)
[22] = target: HIV-1 Env pseudovirus TRO.11 (HIV-1)
[23] = target: HIV-1 Env pseudovirus Du172.17 (HIV-1)
[24] = target: HIV-1 Env pseudovirus 6244_13_B5_4576 (HIV-1)
[25] = target: HIV-1 Env pseudovirus 7030102001E5(Rev-) (HIV-1)
[26] = target: HIV-1 Env pseudovirus Ce1176_A3 (HIV-1)
[27] = target: HIV-1 Env pseudovirus ZM197M.PB7 (HIV-1)
[28] = target: HIV-1 Env pseudovirus BF1266.431a (HIV-1)
[29] = target: HIV-1 Env pseudovirus CNE58 (HIV-1)
[30] = target: HIV-1 Env pseudovirus CNE20 (HIV-1)
[31] = target: HIV-1 Env pseudovirus CAP210.2.00.E8 (HIV-1)
[32] = target: HIV-1 Env pseudovirus CNE19 (HIV-1)

In the case of 10-1074 (antibody), the IC50 [1] is reported as 0.202 µg/mL, the IC80 [1] is reported as 0.922 µg/mL and the IC50 [2] is reported as 0.006 µg/mL. For the same substance, the IC80 [2] was 0.021 µg/mL, the IC50 [3] was 0.052 µg/mL and the IC80 [3] was 0.123 µg/mL. The IC50 [4] was 0.045 µg/mL, the IC80 [4] was 0.166 µg/mL and the IC50 [5] was 0.091 µg/mL. For the same substance, the IC80 [5] was 0.418 µg/mL, the IC50 [6] was 0.006 µg/mL and the IC80 [6] was 0.021 µg/mL. The IC50 [7] was 0.104 µg/mL, the IC80 [7] was 0.375 µg/mL and the IC50 [8] was 0.074 µg/mL. It also gave an IC80 [8] of 0.36 µg/mL, an IC50 [9] of 0.185 µg/mL and an IC80 [9] of 2.11 µg/mL. It also gave an IC50 [10] of 0.007 µg/mL, an IC80 [10] of 0.036 µg/mL and an IC50 [11] of 0.129 µg/mL. It also gave an IC80 [11] of 0.563 µg/mL, an IC50 [12] of 0.042 µg/mL and an IC80 [12] of 0.186 µg/mL. It also gave an IC50 [13] of over 50 µg/mL and an IC80 [13] of over 50 µg/mL.
With N49P7 (antibody) the IC50 [14] was 0.015 µg/mL, the IC80 [14] was 0.049 µg/mL and the MPI [14] was 100. It also gave an IC50 [15] of 0.18 µg/mL, an IC80 [15] of 0.609 µg/mL and an MPI [15] of 100. It also gave an IC50 [16] of 3.84 µg/mL, an IC80 [16] of 21.1 µg/mL and an MPI [16] of 94. For the same substance, the IC50 [17] was 0.95 µg/mL, the IC80 [17] was 3.94 µg/mL and the MPI [17] was 100. It also gave an IC50 [18] of 0.084 µg/mL, an IC80 [18] of 0.248 µg/mL and an MPI [18] of 100. For the same substance, the IC50 [19] was 0.141 µg/mL, the IC80 [19] was 0.468 µg/mL and the MPI [19] was 100. The IC50 [20] was 0.073 µg/mL, the IC80 [20] was 0.253 µg/mL and the MPI [20] was 100.
Work on N49P7.1 (antibody) yielded an IC50 [14] of 0.022 µg/mL, an IC80 [14] of 0.088 µg/mL and an MPI [14] of 100. It also gave an IC50 [15] of 0.307 µg/mL, an IC80 [15] of 1.01 µg/mL and an MPI [15] of 100. For the same substance, the IC50 [16] was 4.37 µg/mL, the IC80 [16] was 30.9 µg/mL and the MPI [16] was 88. The IC50 [17] was 1.07 µg/mL, the IC80 [17] was 5.4 µg/mL and the MPI [17] was 100. The IC50 [18] was 0.121 µg/mL, the IC80 [18] was 0.326 µg/mL and the MPI [18] was 100. For the same substance, the IC50 [19] was 0.171 µg/mL, the IC80 [19] was 0.603 µg/mL and the MPI [19] was 100. It also gave an IC50 [20] of 0.105 µg/mL, an IC80 [20] of 0.374 µg/mL and an MPI [20] of 100.
Work on N49P7.2 (antibody) yielded an IC50 [21] of 0.114 µg/mL, an IC80 [21] of 0.771 µg/mL and an MPI [21] of 100. It also gave an IC50 [22] of 0.113 µg/mL, an IC80 [22] of 0.306 µg/mL and an MPI [22] of 100. It also gave an IC50 [23] of 0.29 µg/mL, an IC80 [23] of 1.08 µg/mL and an MPI [23] of 100. The IC50 [24] was 0.331 µg/mL, the IC80 [24] was 1.04 µg/mL and the MPI [24] was 100. It also gave an IC50 [25] of 0.313 µg/mL, an IC80 [25] of 1.03 µg/mL and an MPI [25] of 100. The IC50 [26] was 0.332 µg/mL, the IC80 [26] was 1.08 µg/mL and the MPI [26] was 100. It also gave an IC50 [27] of 0.223 µg/mL, an IC80 [27] of 1.37 µg/mL and an MPI [27] of 100. It also gave an IC50 [28] of 0.029 µg/mL, an IC80 [28] of 0.159 µg/mL and an MPI [28] of 100. For the same substance, the IC50 [29] was 0.045 µg/mL, the IC80 [29] was 0.129 µg/mL and the MPI [29] was 100. It also gave an IC50 [30] of 0.119 µg/mL, an IC80 [30] of 0.574 µg/mL and an MPI [30] of 99. The IC50 [31] was 3.94 µg/mL, the IC80 [31] was 21.7 µg/mL and the MPI [31] was 95. It also gave an IC50 [32] of 0.033 µg/mL, an IC80 [32] of 0.129 µg/mL and an MPI [32] of 100.
Substance N49P11 (antibody) has an IC50 [21] of 4.77 µg/mL, an IC80 [21] of 14.2 µg/mL and an MPI [21] of 100. For the same substance, the IC50 [22] was 0.179 µg/mL, the IC80 [22] was 0.937 µg/mL and the MPI [22] was 100. It also gave an IC50 [23] of 5.65 µg/mL, an IC80 [23] of 17.9 µg/mL and an MPI [23] of 100. For the same substance, the IC50 [24] was 1.12 µg/mL, the IC80 [24] was 5.45 µg/mL and the MPI [24] was 100. The IC50 [25] was 0.635 µg/mL, the IC80 [25] was 2.29 µg/mL and the MPI [25] was 100. It also gave an IC50 [26] of 0.946 µg/mL, an IC80 [26] of 6.05 µg/mL and an MPI [26] of 100. For the same substance, the IC50 [27] was 0.303 µg/mL, the IC80 [27] was 1.59 µg/mL and the MPI [27] was 100. The IC50 [28] was 0.998 µg/mL, the IC80 [28] was 7.13 µg/mL and the MPI [28] was 100. It also gave an IC50 [29] of 0.038 µg/mL, an IC80 [29] of 0.135 µg/mL and an MPI [29] of 100. The IC50 [30] was 5.19 µg/mL, the IC80 [30] was 22.6 µg/mL and the MPI [30] was 100. The IC50 [31] was 5.12 µg/mL, the IC80 [31] was 19.4 µg/mL and the MPI [31] was 100. It also gave an IC50 [32] of 0.437 µg/mL, an IC80 [32] of 5.5 µg/mL and an MPI [32] of 100.
For N49P18.1 (antibody), the IC50 [21] was 30.5 µg/mL, the IC80 [21] was over 50 µg/mL and the MPI [21] was 62. The IC50 [22] was 4.25 µg/mL, the IC80 [22] was 11.7 µg/mL and the MPI [22] was 99. The IC50 [23] was 6.52 µg/mL, the IC80 [23] was 21.3 µg/mL and the MPI [23] was 92. For the same substance, the IC50 [24] was 33.4 µg/mL, the IC80 [24] was over 50 µg/mL and the MPI [24] was 61. It also gave an IC50 [25] of 6.35 µg/mL, an IC80 [25] of 17.7 µg/mL and an MPI [25] of 98. For the same substance, the IC50 [26] was 32.5 µg/mL, the IC80 [26] was over 50 µg/mL and the MPI [26] was 61. It also gave an IC50 [27] of 12.5 µg/mL, an IC80 [27] of 49.8 µg/mL and an MPI [27] of 84. The IC50 [28] was 3.48 µg/mL, the IC80 [28] was 20.8 µg/mL and the MPI [28] was 93. For the same substance, the IC50 [29] was 1.92 µg/mL, the IC80 [29] was 5.26 µg/mL and the MPI [29] was 100. The IC50 [30] was 1.33 µg/mL, the IC80 [30] was 6.36 µg/mL and the MPI [30] was 100. It also gave an IC50 [31] of over 50 µg/mL, an IC80 [31] of over 50 µg/mL and an MPI [31] of 11. The IC50 [32] was 2.34 µg/mL, the IC80 [32] was 9.64 µg/mL and the MPI [32] was 99.

From patent publication US20240117018A1
